Measurements: doi:10.1101/2023.07.24.550339

Target: Rac1BD (MiniBAR70-208), recombinant (human) (UniProt O15063)
Test: SEC-MALS

stoichiometry N (Rac1 per Rac1BD homodimer): 2
Substance: Rac1Q61L, recombinant (from UniProt P63000 1-192) (natural protein)
